Laboratory results: publication doi:10.1101/2024.10.12.618001, “High yield purification of an Isoleucine zipper modified CD95 Ligand with either biotin or DNA-oligomer binding domain for efficient Cell Apoptosis Induction” (bioRxiv, 2024)
Values joined by “and” are separate entries in the source; they are usually repeats but may differ in a detail not shown here. Equal entries are not always repeated.

T1: soluble CD95L (Enzo Life Sciences) (UniProt P48023 130-281)
T1 construct: soluble CD95 ligand (CD95L, Fas ligand); The conclusion calls it the unmodified CD95L; also called sCD95L; source: bought: Enzo Life Sciences
T1 sequence (looked up): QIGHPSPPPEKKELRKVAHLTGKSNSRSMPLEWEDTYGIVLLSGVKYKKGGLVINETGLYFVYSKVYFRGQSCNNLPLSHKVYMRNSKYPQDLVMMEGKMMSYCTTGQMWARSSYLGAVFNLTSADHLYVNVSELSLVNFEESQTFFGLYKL

B1: CD95L-IZ-biotin (CD95L-IZ after His-tag cleavage, biotinylated at the extra cysteine) (ligand)
chain: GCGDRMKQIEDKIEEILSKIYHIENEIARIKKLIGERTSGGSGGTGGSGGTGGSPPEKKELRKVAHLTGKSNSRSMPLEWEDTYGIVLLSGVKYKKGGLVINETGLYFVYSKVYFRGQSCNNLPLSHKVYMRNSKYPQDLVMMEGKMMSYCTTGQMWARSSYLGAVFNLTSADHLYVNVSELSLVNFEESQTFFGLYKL
modifications: biotin (biotin-C5-maleimide) on the extra cysteine; glycosylated
notes: What is left after TEV cleavage: Gly, extra cysteine, isoleucine zipper (IZ) and linker; CD95 ligand (CD95L, Fas ligand, CD178, TNFSF6), human, extracellular domain, amino acids 137-281; also called CD95L-IZ-X; source: HEK293T, transient transfection, secreted; purified (anti-His-tag antibody agarose beads), His-tag cut with TEV protease, labelled with biotin-C5-maleimide; not shown: His8, …
B2: CD95-His receptor protein (Sino Biological) (receptor, UniProt P25445 26-173, looked up)
chain: QVTDINSKGLELRKTVTTVETQNLEGLHHDGQFCHKPCPPGERKARDCTVNGDEPDCVPCQEGKEYTDKAHFSSKCRRCRLCDEGHGLEVEINCTRTQNTKCRCKPNFFCNSTVCEHCDPCTKCEHGIIKECTLTSNTKCKEEGSRSN
notes: CD95 (Fas, Apo-1) receptor protein with His-tag; also called Fas; Apo-1; source: bought: Sino Biological
B3: CD95L-IZ-His (His8-TEV-Cys-IZ-CD95L (137-281), secreted form) (ligand)
chain: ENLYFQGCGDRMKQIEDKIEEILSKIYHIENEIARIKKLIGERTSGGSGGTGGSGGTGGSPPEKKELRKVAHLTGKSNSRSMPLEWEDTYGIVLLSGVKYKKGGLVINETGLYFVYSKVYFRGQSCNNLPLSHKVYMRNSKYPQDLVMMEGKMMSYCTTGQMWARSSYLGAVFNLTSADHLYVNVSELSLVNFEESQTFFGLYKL
modifications: glycosylated (the paper suggests three to five N-glycans)
notes: TEV protease site ENLYFQ, extra cysteine, isoleucine zipper (IZ, variant of the GCN4 leucine zipper) and linker; CD95 ligand (CD95L, Fas ligand, CD178, TNFSF6), human, extracellular domain, amino acids 137-281; The natural CD95L part is fused to a designed trimerisation motif; also called CD95L-IZ with His-tag; CD95-IZ-His; source: HEK293T, transient transfection (PEI), secreted into the medium; …

How the values were obtained:
[1] = target: B2; experiment: ELISA; CD95-His coated at 2 µg/ml in PBS overnight at 4 °C; ligand 0.1-100 nM in 0.5 % BSA/PBST, 2 h at r.t.; detected with anti-CD95L antibody and HRP secondary; 4-parameter logistic fit; conditions: both partners purified
[2] = target: T1, soluble CD95L (Enzo Life Sciences); experiment: as above; conditions: both partners purified
[3] = target: the molecule itself; experiment: SEC; Superdex 75 10/300 GL, PBS pH 7.4, 0.3 ml/min; 350 µl CD95L-IZ-His at 0.409 mg/ml; protein standard mix for sizes; curve fitted with three Gaussians

Binder B1 has a Kd [1] of 0.68 nM.

B2 gave a Kd [2] of 11.3 nM.

B3 was tested, and the “stoichiometry N” value [3] was 3 and 2.
